Patent publication US20220403028A1 (NUMAB THERAPEUTICS, published 2022)

B1: PRO389 (IL23R×CD3 1st gen Numab) (bispecific antibody)
chain: DIQMTQSPSSLSASVGDRVTITCQASENIYSFLAWYQQKPGKAPKLLIYSASKLAAGVPSRFSGSGSGTDFTLTISSLQPEDFATYYCQQTNRYSNPDIYNVFGTGTKVTVLGGGGGSEVQLVESGGGLVQPGGSLRLSCAASGFPLSSYAMIWVRQAPGKGLEWIGMILRAGNIYYASWVKGRFTISRDNSKNTVYLQMNSLRAEDTAVYYCARRHYNREGYPIGIGDLWGQGTLVTVSSGGGGSGGGGSGGGGSGGGGSDIQMTQSPSSLSASVGDRVTITCQSSESVYNNKRLSWYQQKPGKAPKLLIYTASSLASGVPSRFSGSGSGTDFTLTISSLQPEDFATYYCQGEFTCSNADCFTFGTGTKVTVLGGGGGSEVQLVESGGGLVQPGGSLRLSCAASGIDFNSNYYMCWVRQAPGKGLEWIGCIYVGSHVNTYYANWAKGRFTISRDNSKNTVYLQMNSLRAEDTAVYYCATSGSSVLYFKFWGQGTLVTVSS
B2: 28-21-D09-sc18 (scFv)
scFv: DIQMTQSPSSLSASVGDRVTITCQSSQSVFSNNYLAWYQQKPGQSPKRLIYSASTLASGVPSRFSGSGSGTHFTLTISSLQPEDFATYYCLGSYACSSADCYVFGTGTKVTVLGGGGGSGGGGSGGGGSGGGGSEVQLVESGGGLVQPGGSLRLSCAASGFSLSSYDMSWVRQAPGKGLEWIGASYASGPTYYASWAKGRFTISRDNSKNTVYLQMNSLRAEDTAVYYCARGGWTGTSHSNIWGQGTLVTVSS
B3: 28-21-D09-sc15 (scFv)
scFv: DIQMTQSPSSLSASVGDRVTITCQSSQSVFSNNYLAWYQQKPGQSPKRLIYSASTLASGVPSRFSGSGSGTHFTLTISSLQPEDFATYYCLGSYACSSADCYVFGTGTKVTVLGGGGGSGGGGSGGGGSGGGGSEVQLVESGGGLVQPGGSLRLSCAASGFSLSSYDMSWVRQAPGKGLEWIGASYASGPTYYASWAKGRFTISRDNSKNTVYLQMNSLRAEDTATYFCARGGWTGTSHSNIWGQGTLVTVSS
B4: 28-21-D09-sc04 (scFv)
scFv: DIQMTQSPSSLSASVGDRVTITCQSSQSVFSNNYLAWFQQKPGQSPKRLIYSASTLASGVPSRFSGSGSGTDFTLTISSLQPEDFATYYCLGSYACSSADCYVFGTGTKVTVLGGGGGSGGGGSGGGGSGGGGSEVQLVESGGGLVQPGGSLRLSCAASGFSLSSYDMSWVRQAPGKGLAWIGASYASGPTYYASWAKGRFTISRDNSKNTVYLQMNSLRAEDTATYFCARGGWTGTSHSNIWGQGTLVTVSS
B5: 28-21-D09-sc16 (scFv)
scFv: DIQMTQSPSSLSASVGDRVTITCQSSQSVFSNNYLAWYQQKPGQSPKRLIYSASTLASGVPSRFSGSGSGTDFTLTISSLQPEDFATYYCLGSYACSSADCYVFGTGTKVTVLGGGGGSGGGGSGGGGSGGGGSEVQLVESGGGLVQPGGSLRLSCAASGFSLSSYDMSWVRQAPGKGLEWIGASYASGPTYYASWAKGRFTISRDNSKNTVYLQMNSLRAEDTATYFCARGGWTGTSHSNIWGQGTLVTVSS
B6: 28-21-D09-sc19 (scFv)
scFv: DIQMTQSPSSLSASVGDRVTITCQSSQSVFSNNYLAWYQQKPGQSPKRLIYSASTLASGVPSRFSGSGSGTDFTLTISSLQPEDFATYYCLGSYACSSADCYVFGTGTKVTVLGGGGGSGGGGSGGGGSGGGGSEVQLVESGGGLVQPGGSLRLSCAASGFSLSSYDMSWVRQAPGKGLEWIGASYASGPTYYASWAKGRFTISRDNSKNTVYLQMNSLRAEDTAVYYCARGGWTGTSHSNIWGQGTLVTVSS

Experiments:
human CD3ε on T cells = human CD3ε on T cells (human, UniProt P07766 23-207); experiment: cell-based or functional assay
Sequence of human CD3ε on T cells (P07766 23-207 limits assumed): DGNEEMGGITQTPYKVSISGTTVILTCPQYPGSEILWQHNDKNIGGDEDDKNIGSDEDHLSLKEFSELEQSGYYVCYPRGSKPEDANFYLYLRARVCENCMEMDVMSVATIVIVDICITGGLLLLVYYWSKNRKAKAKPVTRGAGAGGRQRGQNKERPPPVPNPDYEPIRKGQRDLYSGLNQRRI

[1] = target: cynomolgus CD3ε (recombinant, coupled to the SPR chip) (cynomolgus (Macaca fascicularis)) (UniProt Q95LI5); experiment: SPR (Biacore T200), CD3ε amine-coupled to CM5 chip, scFv as analyte, 1:1 Langmuir fit

Row | Binder | EC50 of specific target cell lysis (IL-23R-expressing CHO-K1 target cells, human PBMCs, flow cytometry cytotoxicity assay) (human CD3ε on T cells) [nM] | Kd [1] [nM]
1 | B1 | 0.0053 | –
2 | B2 | – | 14.2
3 | B3 | – | 13.7
4 | B4 | – | 4.78
5 | B5 | – | 16.6
6 | B6 | – | 19.5
